Columns and labels:
[1] = target: Human chorionic gonadotropin (human) (UniProt P01215); assay: bead sandwich, flow cytometry; capture B2 beads, no hCG (background)
Alpha fetoprotein [2] = target: Alpha fetoprotein (UniProt P02771); assay: MAB602 capture beads, flow cytometry; AFP 1000.0 ng/mL, anti-AFP probe
[3] = target: Human chorionic gonadotropin (human) (UniProt P01215); assay: bead sandwich, flow cytometry; capture B1 (AB633) beads, hCG 20.0 ug/mL
Alpha fetoprotein [4] = target: Alpha fetoprotein (UniProt P02771); assay: MAB602 capture beads, flow cytometry; AFP 100.0 ng/mL, anti-AFP probe
Alpha fetoprotein [5] = target: Alpha fetoprotein (UniProt P02771); assay: MAB602 capture beads, flow cytometry; AFP 0.0 ng/mL, anti-AFP probe
[6] = target: Human chorionic gonadotropin (human) (UniProt P01215); assay: bead sandwich, flow cytometry; capture B1 (AB633) beads, no hCG (background)
Alpha fetoprotein [7] = target: Alpha fetoprotein (UniProt P02771); assay: MAB602 capture beads, flow cytometry; AFP 0.1 ng/mL, anti-AFP probe
Alpha fetoprotein [8] = target: Alpha fetoprotein (UniProt P02771); assay: MAB602 capture beads, flow cytometry; AFP 1.0 ng/mL, anti-AFP probe
[9] = target: Human chorionic gonadotropin (human) (UniProt P01215); assay: bead sandwich, flow cytometry; capture B2 beads, hCG 20.0 ug/mL
Alpha fetoprotein [10] = target: Alpha fetoprotein (UniProt P02771); assay: MAB602 capture beads, flow cytometry; AFP 10.0 ng/mL, anti-AFP probe

UniProt P01215, sequence (P01215 25-116, chain 1 of 2, other chains not shown): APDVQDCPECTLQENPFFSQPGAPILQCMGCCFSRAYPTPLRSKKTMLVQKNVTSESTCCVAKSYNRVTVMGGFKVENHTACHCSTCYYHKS
UniProt P02771, sequence (P02771 19-609 limits assumed): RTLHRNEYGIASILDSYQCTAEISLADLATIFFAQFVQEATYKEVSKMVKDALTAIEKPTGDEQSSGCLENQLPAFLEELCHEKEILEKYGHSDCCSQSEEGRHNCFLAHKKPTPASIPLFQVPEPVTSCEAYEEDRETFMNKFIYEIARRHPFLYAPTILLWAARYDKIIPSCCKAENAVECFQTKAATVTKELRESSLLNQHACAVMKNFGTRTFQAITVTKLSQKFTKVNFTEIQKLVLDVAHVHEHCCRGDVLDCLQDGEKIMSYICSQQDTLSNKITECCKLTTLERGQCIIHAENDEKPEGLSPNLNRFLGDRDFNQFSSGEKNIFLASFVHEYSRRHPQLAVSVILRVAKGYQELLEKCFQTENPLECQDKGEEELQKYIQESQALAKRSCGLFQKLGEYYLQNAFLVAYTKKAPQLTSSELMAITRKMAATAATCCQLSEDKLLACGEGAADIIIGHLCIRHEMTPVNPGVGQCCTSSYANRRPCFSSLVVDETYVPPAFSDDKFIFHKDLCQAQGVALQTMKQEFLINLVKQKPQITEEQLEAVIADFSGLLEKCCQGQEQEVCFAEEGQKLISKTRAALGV

MIF of Fm [1]: 56 | MIF of Fm (Alpha fetoprotein [2]): 52 | MIF of Fm [3]: 107 | MIF of Fm (Alpha fetoprotein [4]): 48 | MIF of Fm (Alpha fetoprotein [5]): 48 | MIF of Fm [6]: 33 | MIF of Fm (Alpha fetoprotein [7]): 48 | MIF of Fm (Alpha fetoprotein [8]): 48 | MIF of Fm [9]: 886 | MIF of Fm (Alpha fetoprotein [10]): 48
Substance: MAB602 monoclonal anti-hCG antibody
